Measured values taken from patent US20100278801A1.
pKd, pKi: −log10 of the molar value. Like-named read-outs stand apart in the source and are kept apart here. Values belong to the substance of their own block, whether it stands above or below them.

Assays:
TGF-α [1] = molecular target: TGF-α (UniProt P01135); conditions: Fc fusion
Target sequence in this assay (P01135 40-89): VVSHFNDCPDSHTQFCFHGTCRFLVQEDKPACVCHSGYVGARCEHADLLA

NRG1-β [2] = molecular target: NRG1-β (UniProt Q02297); conditions: Fc fusion
Target sequence in this assay (Q02297 other isoform, or with tags, fused parts or gaps): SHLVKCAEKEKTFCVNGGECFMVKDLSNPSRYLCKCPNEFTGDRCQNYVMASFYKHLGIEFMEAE

HB-EGF = HB-EGF (UniProt Q99075); assay: biotin-ligand binding; conditions: Fc fusion
TGF-α [3] = molecular target: TGF-α (UniProt P01135); assay: biotin-ligand binding; conditions: Fc fusion
Target sequence in this assay (P01135 40-89): as the sequence (P01135 40-89) above

NRG1-β [4] = molecular target: NRG1-β (UniProt Q02297); assay: 125I-NRG1-β saturation binding, heterodimer immobilised on anti-Fc coated plate
Target sequence in this assay (Q02297 other isoform, or with tags, fused parts or gaps limits assumed): as the sequence (Q02297 other isoform, or with tags, fused parts or gaps) above

TGF-α [5] = molecular target: TGF-α (UniProt P01135); assay: 125I-TGF-a saturation binding, heterodimer immobilised on anti-Fc coated plate; not saturated at 100 nM
Target sequence in this assay (P01135 40-89 limits assumed): as the sequence (P01135 40-89) above

EGF [6] = molecular target: EGF (UniProt P01133); assay: Eu-EGF competition; conditions: Fc fusion
Chain of EGF (P01133 971-1023): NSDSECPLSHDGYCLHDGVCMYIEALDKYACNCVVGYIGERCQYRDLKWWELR

EGF [7] = molecular target: EGF (UniProt P01133); assay: Eu-ligand saturation binding; conditions: Fc fusion

Chain of HB-EGF (Q99075 63-148): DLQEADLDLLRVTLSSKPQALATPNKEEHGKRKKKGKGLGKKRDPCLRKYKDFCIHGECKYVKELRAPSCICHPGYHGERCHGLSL

pKd (TGF-α [1]): 8.77
Substance: EGFRT15S:Fc homodimer (from UniProt P00533 25-645)

pKd (NRG1-β [2]): 7.77
Substance: HER3:Fc (from UniProt P21860 20-643)

pKd (HB-EGF): 8.80
pKd (TGF-α [3]): 7.37
Substance: RB222 (from UniProt P00533 25-645; P21860 20-643)

pKd (NRG1-β [4]): 8.80
pKd (TGF-α [5]): < 7.52
Substance: RB222 (from UniProt P00533 25-645; P21860 20-643) (Fc fusion)

pKi (EGF [6]): 9.05
pKd (EGF [7]): 9.11
Substance: RB242 (from UniProt P00533 25-645; P21860 20-643)
